In PMC9352680, “A comprehensive thermodynamic model for RNA binding by the Saccharomyces cerevisiae Pumilio protein PUF4”:

Biological target: T1, PUF4 RNA-binding domain (Saccharomyces cerevisiae, UniProt P25339 537-888)
T1 sequence: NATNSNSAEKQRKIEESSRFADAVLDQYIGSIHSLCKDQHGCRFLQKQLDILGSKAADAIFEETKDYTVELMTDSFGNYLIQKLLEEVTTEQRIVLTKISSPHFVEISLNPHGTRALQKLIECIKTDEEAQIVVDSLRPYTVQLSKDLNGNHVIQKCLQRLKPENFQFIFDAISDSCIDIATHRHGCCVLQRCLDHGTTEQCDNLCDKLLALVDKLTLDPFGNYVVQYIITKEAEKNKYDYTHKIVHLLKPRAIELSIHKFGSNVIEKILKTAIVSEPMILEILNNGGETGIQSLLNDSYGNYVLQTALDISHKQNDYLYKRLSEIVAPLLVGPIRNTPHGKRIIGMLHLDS
Experiment: Mg; RNA-MaP; 20 mM Na-HEPES pH 7.4, 30 mM KOAc, 0.75 mM MgCl2, 0.1% Tween-20, 5% glycerol, 0.1 mg/mL BSA, 2 mM DTT; 25 C; 0.0125-409.6 nM protein
Conditions: tags: N-His6-TEV cleaved; C-SNAP kept, Cy3B-labelled; label: tethered on chip by stalled RNA polymerase

| Binder | Kd [nM] |
| --- | --- |
| UCUCUUCUUAUAUAUACGUCUCUU (ssRNA) [Id_ii_S1_P3E.3_K3.2_C3.2_H3.2_A3.1_F3.1_T3.2_[T9C]_[A10G]] | 1260 |
| UCUCUUCCUAUAUAUAUAUCUCUU (ssRNA) [Id_ii_S1_P3E.3_K3.2_C3.2_[T-1C]_H3.2_A3.1_F3.1_T3.2] | 578 |
| UCUCUUCUUAUAUAUAUAUCUCUU (ssRNA) [Id_ii_S1_P3E.3_K3.2_C3.2_H3.2_A3.1_F3.1_T3.2] | 394 |
| UCUCUUAAUAUAUAUACGUCUCUU (ssRNA) [Id_ii_S1_P3E.3_K3.2_C3.2_[C-2A]_[T-1A]_H3.2_A3.1_F3.1_T3.2_[T9C]_[A10G]] | 1980 |
| UCUCUUAAUAUAUAUAGCUCUCUU (ssRNA) [Id_ii_S1_P3E.3_K3.2_C3.2_[C-2A]_[T-1A]_H3.2_A3.1_F3.1_T3.2_[T9G]_[A10C]] | 633 |
| UCUCUUCCUAUAUAUAGUUCUCUU (ssRNA) [Id_ii_S1_P3E.3_K3.2_C3.2_[T-1C]_H3.2_A3.1_F3.1_T3.2_[T9G]_[A10T]] | 787 |
| UCUCUUCCUAUAUAUACCUCUCUU (ssRNA) [Id_ii_S1_P3E.3_K3.2_C3.2_[T-1C]_H3.2_A3.1_F3.1_T3.2_[T9C]_[A10C]] | 969 |
| UCUCUUUAUACAUUAUCUCUU (ssRNA) [Ib_S1_P4E.1_K4.1_C4.1_H4.1_[G2A]_A4.1_[T5C]_F4.1_T4.1] | 23.8 |
| UCUCUUAUUAUAUAUACAUCUCUU (ssRNA) [Id_ii_S1_P3E.3_K3.2_C3.2_[C-2A]_H3.2_A3.1_F3.1_T3.2_[T9C]] | 599 |
| UCUCUUCUUAUAUAUAUCUCUCUU (ssRNA) [Id_ii_S1_P3E.3_K3.2_C3.2_H3.2_A3.1_F3.1_T3.2_[A10C]] | 600 |
| UCUCUUCUUAUAUAUACAUCUCUU (ssRNA) [Id_ii_S1_P3E.3_K3.2_C3.2_H3.2_A3.1_F3.1_T3.2_[T9C]] | 907 |
| UCUCUUCUUAUAUAUAAAUCUCUU (ssRNA) [Id_ii_S1_P3E.3_K3.2_C3.2_H3.2_A3.1_F3.1_T3.2_[T9A]] | 1180 |
| UCUCUUAAUAUAUAUAAAUCUCUU (ssRNA) [Id_ii_S1_P3E.3_K3.2_C3.2_[C-2A]_[T-1A]_H3.2_A3.1_F3.1_T3.2_[T9A]] | 1290 |
| UCUCUUCAUAUAUAUAGGUCUCUU (ssRNA) [Id_ii_S1_P3E.3_K3.2_C3.2_[T-1A]_H3.2_A3.1_F3.1_T3.2_[T9G]_[A10G]] | 804 |
| UCUCUUCAUAUAUAUACAUCUCUU (ssRNA) [Id_ii_S1_P3E.3_K3.2_C3.2_[T-1A]_H3.2_A3.1_F3.1_T3.2_[T9C]] | 1300 |
| UCUCUUAAUAUAUAUACCUCUCUU (ssRNA) [Id_ii_S1_P3E.3_K3.2_C3.2_[C-2A]_[T-1A]_H3.2_A3.1_F3.1_T3.2_[T9C]_[A10C]] | 2250 |
| UCUCUUCAUAUAUAUACGUCUCUU (ssRNA) [Id_ii_S1_P3E.3_K3.2_C3.2_[T-1A]_H3.2_A3.1_F3.1_T3.2_[T9C]_[A10G]] | 1120 |
| UCUCUUCUUAUAUAUACUUCUCUU (ssRNA) [Id_ii_S1_P3E.3_K3.2_C3.2_H3.2_A3.1_F3.1_T3.2_[T9C]_[A10T]] | 634 |
| UCUCUUCUUAUAUAUAUGUCUCUU (ssRNA) [Id_ii_S1_P3E.3_K3.2_C3.2_H3.2_A3.1_F3.1_T3.2_[A10G]] | 499 |
| UCUCUUAUUAUAUAUAUAUCUCUU (ssRNA) [Id_ii_S1_P3E.3_K3.2_C3.2_[C-2A]_H3.2_A3.1_F3.1_T3.2] | 424 |
| UCUCUUCAUAUAUAUAUCUCUCUU (ssRNA) [Id_ii_S1_P3E.3_K3.2_C3.2_[T-1A]_H3.2_A3.1_F3.1_T3.2_[A10C]] | 717 |

| Binder | Kd [nM] |
| --- | --- |
| UCUCUUAUUAUAUAUAUCUCUCUU (ssRNA) [Id_ii_S1_P3E.3_K3.2_C3.2_[C-2A]_H3.2_A3.1_F3.1_T3.2_[A10C]] | 993 |
| UCUCUUCGUAUAUAUAAUUCUCUU (ssRNA) [Id_ii_S1_P3E.3_K3.2_C3.2_[T-1G]_H3.2_A3.1_F3.1_T3.2_[T9A]_[A10T]] | 675 |
| UCUCUUGCACACUAUACGUCUCUU (ssRNA) [Id_ii_S1_P3E.4_K3.3_C3.2_[C-2G]_[T-1C]_H3.3_A3.1_F3.1_T3.2_[T9C]_[A10G]] | 671 |
| UCUCUUCUUAUAUAUAGUUCUCUU (ssRNA) [Id_ii_S1_P3E.3_K3.2_C3.2_H3.2_A3.1_F3.1_T3.2_[T9G]_[A10T]] | 109 |
| UCUCUUAUUAUAUAUACUUCUCUU (ssRNA) [Id_ii_S1_P3E.3_K3.2_C3.2_[C-2A]_H3.2_A3.1_F3.1_T3.2_[T9C]_[A10T]] | 528 |
| UCUCUUCCUAUAUAUAGCUCUCUU (ssRNA) [Id_ii_S1_P3E.3_K3.2_C3.2_[T-1C]_H3.2_A3.1_F3.1_T3.2_[T9G]_[A10C]] | 980 |
| UCUCUUAAUAUAUAUAGUUCUCUU (ssRNA) [Id_ii_S1_P3E.3_K3.2_C3.2_[C-2A]_[T-1A]_H3.2_A3.1_F3.1_T3.2_[T9G]_[A10T]] | 458 |
| UCUCUUAUUAUAUAUAGCUCUCUU (ssRNA) [Id_ii_S1_P3E.3_K3.2_C3.2_[C-2A]_H3.2_A3.1_F3.1_T3.2_[T9G]_[A10C]] | 1310 |
| UCUCUUCCUAUAUAUACGUCUCUU (ssRNA) [Id_ii_S1_P3E.3_K3.2_C3.2_[T-1C]_H3.2_A3.1_F3.1_T3.2_[T9C]_[A10G]] | 1950 |
| UCUCUUAAUAUAUAUACAUCUCUU (ssRNA) [Id_ii_S1_P3E.3_K3.2_C3.2_[C-2A]_[T-1A]_H3.2_A3.1_F3.1_T3.2_[T9C]] | 886 |
| UCUCUUAUUAUAUAUACCUCUCUU (ssRNA) [Id_ii_S1_P3E.3_K3.2_C3.2_[C-2A]_H3.2_A3.1_F3.1_T3.2_[T9C]_[A10C]] | 2290 |
| UCUCUUCCUAUAUAUAUCUCUCUU (ssRNA) [Id_ii_S1_P3E.3_K3.2_C3.2_[T-1C]_H3.2_A3.1_F3.1_T3.2_[A10C]] | 1000 |
| UCUCUUCCUAUAUAUAUUUCUCUU (ssRNA) [Id_ii_S1_P3E.3_K3.2_C3.2_[T-1C]_H3.2_A3.1_F3.1_T3.2_[A10T]] | 673 |
| UCUCUUCCUAUAUAUAUGUCUCUU (ssRNA) [Id_ii_S1_P3E.3_K3.2_C3.2_[T-1C]_H3.2_A3.1_F3.1_T3.2_[A10G]] | 770 |
| UCUCUUCUUAUAUAUACCUCUCUU (ssRNA) [Id_ii_S1_P3E.3_K3.2_C3.2_H3.2_A3.1_F3.1_T3.2_[T9C]_[A10C]] | 1300 |
| UCUCUUCAUAUAUAUAUAUCUCUU (ssRNA) [Id_ii_S1_P3E.3_K3.2_C3.2_[T-1A]_H3.2_A3.1_F3.1_T3.2] | 624 |
| UCUCUUAUUAUAUAUACGUCUCUU (ssRNA) [Id_ii_S1_P3E.3_K3.2_C3.2_[C-2A]_H3.2_A3.1_F3.1_T3.2_[T9C]_[A10G]] | 1860 |
| UCUCUUCUUAUAUAUAGCUCUCUU (ssRNA) [Id_ii_S1_P3E.3_K3.2_C3.2_H3.2_A3.1_F3.1_T3.2_[T9G]_[A10C]] | 77.5 |
| UCUCUUCCUAUAUAUAAGUCUCUU (ssRNA) [Id_ii_S1_P3E.3_K3.2_C3.2_[T-1C]_H3.2_A3.1_F3.1_T3.2_[T9A]_[A10G]] | 1540 |
| UCUCUUCAUAUAUAUAGCUCUCUU (ssRNA) [Id_ii_S1_P3E.3_K3.2_C3.2_[T-1A]_H3.2_A3.1_F3.1_T3.2_[T9G]_[A10C]] | 512 |
| UCUCUUUAUAAAUUAUCUCUU (ssRNA) [Ib_S1_P4E.1_K4.1_C4.1_H4.1_[G2A]_A4.1_[T5A]_F4.1_T4.1] | 128 |

| Binder | Kd [nM] |
| --- | --- |
| UCUCUUCGUAUAUAUACCUCUCUU (ssRNA) [Id_ii_S1_P3E.3_K3.2_C3.2_[T-1G]_H3.2_A3.1_F3.1_T3.2_[T9C]_[A10C]] | 1710 |
| UCUCUUCGUAUAUAUAGCUCUCUU (ssRNA) [Id_ii_S1_P3E.3_K3.2_C3.2_[T-1G]_H3.2_A3.1_F3.1_T3.2_[T9G]_[A10C]] | 419 |
| UCUCUUCAUAUAUAUACUUCUCUU (ssRNA) [Id_ii_S1_P3E.3_K3.2_C3.2_[T-1A]_H3.2_A3.1_F3.1_T3.2_[T9C]_[A10T]] | 618 |
| UCUCUUCAUAUAUAUAAUUCUCUU (ssRNA) [Id_ii_S1_P3E.3_K3.2_C3.2_[T-1A]_H3.2_A3.1_F3.1_T3.2_[T9A]_[A10T]] | 669 |
| UCUCUUAUUAUAUAUAGUUCUCUU (ssRNA) [Id_ii_S1_P3E.3_K3.2_C3.2_[C-2A]_H3.2_A3.1_F3.1_T3.2_[T9G]_[A10T]] | 544 |
| UCUCUUCGUAUAUAUAUAUCUCUU (ssRNA) [Id_ii_S1_P3E.3_K3.2_C3.2_[T-1G]_H3.2_A3.1_F3.1_T3.2] | 488 |
| UCUCUUUCUACAUUAUCUCUU (ssRNA) [Ib_S1_P4E.1_K4.1_C4.1_H4.1_[G2C]_A4.1_[T5C]_F4.1_T4.1] | 1450 |
| UCUCUUAAUAUAUAUACUUCUCUU (ssRNA) [Id_ii_S1_P3E.3_K3.2_C3.2_[C-2A]_[T-1A]_H3.2_A3.1_F3.1_T3.2_[T9C]_[A10T]] | 344 |
| UCUCUUAAUAUAUAUAUUUCUCUU (ssRNA) [Id_ii_S1_P3E.3_K3.2_C3.2_[C-2A]_[T-1A]_H3.2_A3.1_F3.1_T3.2_[A10T]] | 972 |
| UCUCUUCGUAUAUAUAAAUCUCUU (ssRNA) [Id_ii_S1_P3E.3_K3.2_C3.2_[T-1G]_H3.2_A3.1_F3.1_T3.2_[T9A]] | 653 |
| UCUCUUCCUAUAUAUAACUCUCUU (ssRNA) [Id_ii_S1_P3E.3_K3.2_C3.2_[T-1C]_H3.2_A3.1_F3.1_T3.2_[T9A]_[A10C]] | 1070 |
| UCUCUUAAUAUAUAUAUGUCUCUU (ssRNA) [Id_ii_S1_P3E.3_K3.2_C3.2_[C-2A]_[T-1A]_H3.2_A3.1_F3.1_T3.2_[A10G]] | 698 |
| UCUCUUCAUAUAUAUAGUUCUCUU (ssRNA) [Id_ii_S1_P3E.3_K3.2_C3.2_[T-1A]_H3.2_A3.1_F3.1_T3.2_[T9G]_[A10T]] | 413 |
| UCUCUUCCUAUAUAUACAUCUCUU (ssRNA) [Id_ii_S1_P3E.3_K3.2_C3.2_[T-1C]_H3.2_A3.1_F3.1_T3.2_[T9C]] | 1260 |
| UCUCUUUUUAUCUUAUCUCUU (ssRNA) [Ib_S1_P4E.1_K4.1_C4.1_H4.1_[G2T]_A4.1_[A6C]_F4.1_T4.1] | > 2300 |
| UCUCUUUUUACAUUAUCUCUU (ssRNA) [Ib_S1_P4E.1_K4.1_C4.1_H4.1_[G2T]_A4.1_[T5C]_F4.1_T4.1] | 914 |
| UCUCUUCGUAUAUAUAACUCUCUU (ssRNA) [Id_ii_S1_P3E.3_K3.2_C3.2_[T-1G]_H3.2_A3.1_F3.1_T3.2_[T9A]_[A10C]] | 629 |
| UCUCUUAUUAUAUAUAUUUCUCUU (ssRNA) [Id_ii_S1_P3E.3_K3.2_C3.2_[C-2A]_H3.2_A3.1_F3.1_T3.2_[A10T]] | 383 |
| UCUCUUCAUAUAUAUAUUUCUCUU (ssRNA) [Id_ii_S1_P3E.3_K3.2_C3.2_[T-1A]_H3.2_A3.1_F3.1_T3.2_[A10T]] | 515 |
| UCUCUUAUUAUAUAUAAUUCUCUU (ssRNA) [Id_ii_S1_P3E.3_K3.2_C3.2_[C-2A]_H3.2_A3.1_F3.1_T3.2_[T9A]_[A10T]] | 814 |
| UCUCUUAGUAUAAUAUCUCUU (ssRNA) [Ib_S1_P4E.1_K4.1_C4.1_H4.1_[T1A]_A4.1_[T7A]_F4.1_T4.1] | 126 |
